These results are taken from US20240408235.

Common to all, as to test: cell_activity
For series [1], the system named is AAT 43-44L.384 meganuclease (synthetic construct (I-CreI derived)?). To be noted: HEK293, 25 ng RNA.
For series [2], the system named is AAT 43-44L.276 meganuclease (synthetic construct (I-CreI derived)?). Conditions: HEK293, 25 ng RNA.
Series [3] has as its system AAT 43-44x.58 meganuclease (synthetic construct (I-CreI derived)?). Conditions: PiZ mouse liver, AAV8 delivery with repair template.
Series [4] relates to AAT 43-44L.132 meganuclease (synthetic construct (I-CreI derived)?). Conditions: HEK293, 25 ng RNA.
Series [5] has as its system AAT 43-44L.105 meganuclease (synthetic construct (I-CreI derived)?). To be noted: PiZ mouse liver, AAV8 delivery with repair template.
In series [6] the test system is AAT 43-44L.47 meganuclease (synthetic construct (I-CreI derived)?). Conditions: HEK293, 25 ng RNA.
Series [7] concerns AAT 37-38L.175 meganuclease (synthetic construct (I-CreI derived)?). Conditions: HEK293, 25 ng RNA.
Series [8] has as its system AAT 37-38L.262 meganuclease (synthetic construct (I-CreI derived)?). To be noted: PiZ mouse liver, LNP-A 0.5 mg/kg; 45% at low dose.
The test system of series [9] is AAT 37-38x.61 meganuclease (synthetic construct (I-CreI derived)?). Conditions: Hep3B, day 6, 50 ng mRNA.
The test system of series [10] is AAT 37-38L.167 meganuclease (synthetic construct (I-CreI derived)?). To be noted: HEK293, 25 ng RNA.
Series [11] relates to AAT 37-38L.24 meganuclease (synthetic construct (I-CreI derived)?). To be noted: HEK293, 25 ng RNA.
For series [12], the system named is AAT 37-38x.50 meganuclease (synthetic construct (I-CreI derived)?). To be noted: PiZ mouse liver, AAV8 delivery with repair template.
For series [13], the system named is AAT 37-38L.158 meganuclease (synthetic construct (I-CreI derived)?). To be noted: HEK293, 25 ng RNA.
Series [14] concerns AAT 35-36x.70 meganuclease (synthetic construct (I-CreI derived)?). To be noted: PiZ mouse liver, scAAV repair (3.5% ssAAV).
Series [15] concerns AAT 41-42L.185 meganuclease (synthetic construct (I-CreI derived)?). Conditions: HEK293, 25 ng RNA.
The subject of series [16] is AAT 41-42x.32 meganuclease (synthetic construct (I-CreI derived)?). To be noted: Hep3B, day 6, 50 ng mRNA.
The subject of series [17] is AAT 41-42L.104 meganuclease (synthetic construct (I-CreI derived)?). To be noted: HEK293, 25 ng RNA.
For series [18], the system named is AAT 41-42L.42 meganuclease (synthetic construct (I-CreI derived)?). Conditions: HEK293, 25 ng RNA.
Series [19] deals with AAT 41-42L.153 meganuclease (synthetic construct (I-CreI derived)?). To be noted: HEK293, 25 ng RNA.
For series [20], the system named is AAT 41-42L.294 meganuclease (synthetic construct (I-CreI derived)?). To be noted: HEK293, 25 ng RNA.
Series [21] concerns AAT 9-10x.311 meganuclease (synthetic construct (I-CreI derived)?). Conditions: PiZ mouse liver, AAV8; groups 1, 3, 4 (~10% in group 2); site highly methylated.
Series [22] has as its system AAT 33-34x.13 meganuclease (synthetic construct (I-CreI derived)?). To be noted: PiZ mouse liver, ssAAV repair (11% scAAV).

With “AGGACCTAGATGTAGGATTCTG (double strand) [AAT 43-44 recognition sequence]”, the activity turned out to be 26 % indels in series [1]; 16 % indels in series [2]; 3 % insertions in series [3]; 52 % indels in [4]; 14 % insertions in [5]; 52 % indels in series [6].
Consider “CCCCACTTTGCACAACTGGGGA (double strand) [AAT 37-38 recognition sequence]”, for which the activity in series [7] amounted to 90 % indels; in series [8] it was 53 % indels; in series [9] it was 80 % indels; in [10] it was 86 % indels; in [11], 90 % indels; in [12], 4 % insertions. Also, the activity in series [13] was 90 % indels.
For the sequence “GGCCTGGTCACACTTGGGTTTA (double strand) [AAT 35-36 recognition sequence]”, in series [14], the activity stood at 7.5 % insertions.
Turning to “TGAGGATCCTTGTGAGTGTTGG (double strand) [AAT 41-42 recognition sequence]”, the activity in [15] came to 20 % indels; in series [16], 17 % indels; in series [17] it was 50 % indels; in [18], 77 % indels; in [19], 50 % indels; in series [20] it was 40 % indels.
In series [21], “TGCCCGCTCACACCAGACCCTG (double strand) [AAT 9-10 recognition sequence]” came in with an activity of 20 % indels.
Sequence “TTCAGACAGTTGCTCAACCTCT (double strand) [AAT 33-34 recognition sequence]” registered an activity in series [22] of 10 % insertions.
